± gives the uncertainty stated by the source.
Experiment: amyloid nucleation score (Sup35N fusion, yeast selection) (log enrichment); library NNK1; higher = more nucleation; inactive = no reads after selection
Method in brief: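 Nucleation score: DiMSum log enrichment of output over input reads, centred on the mode score of non-aggregating sequences. Only sequences with at least 100 input reads were kept. Reads came from Illumina sequencing of plasmid inserts before and after 7 days of growth at 30°C without adenine and uracil, in psi-negative yeast expressing Sup35N fused to peptides of 20 random codons after 24 hours of induction with 100 μM copper sulfate.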

**Q.** For VCFALSI, which amyloid nucleation score is on record?
**A.** The amyloid nucleation score was -0.098 ± 0.46.

**Q.** With VCGVRMVLALSRFVLSAINN as the substance, how does the amyloid nucleation score read?
**A.** Its amyloid nucleation score is 0.177 ± 0.65.

**Q.** With VCNCCLHVYIPSRAGNRPMR as the substance, how does the amyloid nucleation score read?
**A.** The amyloid nucleation score was 8.251 ± 0.072.

**Q.** For VCQLVILGFFLRIVTMCWLW, which amyloid nucleation score is on record?
**A.** Its amyloid nucleation score is “inactive”.

**Q.** Which amyloid nucleation score does the source give for VCRLGSNPVQWVGPGSSVFC here?
**A.** Its amyloid nucleation score is 1.23 ± 0.71.

**Q.** Which amyloid nucleation score does the source give for VCRVMTSLNEGKLSAECVLV here?
**A.** Its amyloid nucleation score is 0.594 ± 0.32.

**Q.** With VCYLGECRGHAIMEYWWSWR as the substance, how does the amyloid nucleation score read?
**A.** Its amyloid nucleation score is 2.4 ± 0.24.

**Q.** Which amyloid nucleation score does the source give for VCYRGECVDSDLLYLSCP here?
**A.** The amyloid nucleation score was -0.389 ± 1.

**Q.** With VDCMGKMVLFLPTFGDGFIV as the substance, how does the amyloid nucleation score read?
**A.** The amyloid nucleation score was -0.123 ± 0.32.

**Q.** For VDDICIIVANSAGRDEQMSM, which amyloid nucleation score is on record?
**A.** Its amyloid nucleation score is 1.16 ± 0.56.

**Q.** Which amyloid nucleation score does the source give for VDHVGGWVYWYGTRCTFVDG here?
**A.** Its amyloid nucleation score is -0.048 ± 0.27.

**Q.** For VDISEGCVSPVCFLMPCLMH, which amyloid nucleation score is on record?
**A.** Its amyloid nucleation score is -0.238 ± 0.29.

**Q.** For VDLFYE, which amyloid nucleation score is on record?
**A.** The amyloid nucleation score was “inactive”.

**Q.** With VDLISWLVYEKVMSRMNIYN as the substance, how does the amyloid nucleation score read?
**A.** Its amyloid nucleation score is -0.001 ± 0.4.

**Q.** Which amyloid nucleation score does the source give for VDLLFDTNCNSF here?
**A.** Its amyloid nucleation score is “inactive”.

**Q.** Which amyloid nucleation score does the source give for VDLNWRHVDCCYFRFTTQDH here?
**A.** The amyloid nucleation score was 6.04 ± 0.074.

**Q.** For VEAPGLSCAIRGWNTVVIRR, which amyloid nucleation score is on record?
**A.** Its amyloid nucleation score is 0.387 ± 0.49.

**Q.** For VEGLEDGVWR, which amyloid nucleation score is on record?
**A.** Its amyloid nucleation score is 0.876 ± 0.38.

**Q.** For VELCHIRSLMFLIQHP, which amyloid nucleation score is on record?
**A.** The amyloid nucleation score was 1.05 ± 0.21.

**Q.** With VELLGQYVICPSTRCRIVEN as the substance, how does the amyloid nucleation score read?
**A.** The amyloid nucleation score was 0.254 ± 0.47.

**Q.** With VERTCGVGTRLFTCYGQVAI as the substance, how does the amyloid nucleation score read?
**A.** Its amyloid nucleation score is -0.3 ± 0.53.

**Q.** With VFEADQNENGTTAPSEAQDR as the substance, how does the amyloid nucleation score read?
**A.** Its amyloid nucleation score is -0.088 ± 0.3.

**Q.** With VFFNLIKRWEVVREDTM as the substance, how does the amyloid nucleation score read?
**A.** The amyloid nucleation score was -0.426 ± 0.35.

**Q.** With VFGCSGLDKSQWND as the substance, how does the amyloid nucleation score read?
**A.** The amyloid nucleation score was 0.434 ± 0.45.

**Q.** For VFIIRRDLCWRTSFCLQQEL, which amyloid nucleation score is on record?
**A.** The amyloid nucleation score was 0.965 ± 0.18.

**Q.** With VFITSVFVRECNTHESTTIQ as the substance, how does the amyloid nucleation score read?
**A.** The amyloid nucleation score was 8.073 ± 0.078.

**Q.** With VFKSVFY as the substance, how does the amyloid nucleation score read?
**A.** The amyloid nucleation score was 1.99 ± 0.32.

**Q.** For VFLKDSTVAGNVMTCDIRVV, which amyloid nucleation score is on record?
**A.** The amyloid nucleation score was 0.078 ± 0.6.

**Q.** For VFLLKDRNTTCLWKSVIQQM, which amyloid nucleation score is on record?
**A.** The amyloid nucleation score was 0.494 ± 0.34.

**Q.** With VFLQFVMDDSHGLNK as the substance, how does the amyloid nucleation score read?
**A.** Its amyloid nucleation score is “inactive”.

**Q.** With VFLRL as the substance, how does the amyloid nucleation score read?
**A.** The amyloid nucleation score was 4.48 ± 0.1.

**Q.** With VFLRRVINTSFGSMMV as the substance, how does the amyloid nucleation score read?
**A.** The amyloid nucleation score was 0.976 ± 1.1.

**Q.** With VFMIVCK as the substance, how does the amyloid nucleation score read?
**A.** Its amyloid nucleation score is “inactive”.

**Q.** Which amyloid nucleation score does the source give for VFNVGYLV here?
**A.** Its amyloid nucleation score is -1.21 ± 0.55.

**Q.** For VFRGSWCRTNNVIPGLFNKA, which amyloid nucleation score is on record?
**A.** The amyloid nucleation score was 0.488 ± 0.4.

**Q.** With VFSVAGASCCRRIGSCWLLR as the substance, how does the amyloid nucleation score read?
**A.** The amyloid nucleation score was 0.687 ± 0.97.

**Q.** With VFSYGWLYQAPFFRFLHTGF as the substance, how does the amyloid nucleation score read?
**A.** The amyloid nucleation score was 0.109 ± 0.74.

**Q.** With VFYLCSLLCLIVKRLGQGDC as the substance, how does the amyloid nucleation score read?
**A.** The amyloid nucleation score was 0.484 ± 0.57.

**Q.** For VGGQRKVRSDDVSMDVHTAT, which amyloid nucleation score is on record?
**A.** The amyloid nucleation score was 0.924 ± 0.47.

**Q.** Which amyloid nucleation score does the source give for VGHKNSYGRFKDIWIWLWYQ here?
**A.** The amyloid nucleation score was -0.009 ± 1.4.

**Q.** Which amyloid nucleation score does the source give for VGHNGIFYC here?
**A.** Its amyloid nucleation score is -0.063 ± 0.29.

**Q.** With VGKITESLLEQLKARHLFCH as the substance, how does the amyloid nucleation score read?
**A.** Its amyloid nucleation score is 4.41 ± 0.058.

**Q.** For VGKVCRTFNRSMGETS, which amyloid nucleation score is on record?
**A.** The amyloid nucleation score was 0.439 ± 0.92.

**Q.** With VGNMYYGSTSHNDT as the substance, how does the amyloid nucleation score read?
**A.** The amyloid nucleation score was -1.48 ± 1.7.

**Q.** With VGSHVRREFCELVYRS as the substance, how does the amyloid nucleation score read?
**A.** The amyloid nucleation score was -0.303 ± 0.44.

**Q.** Which amyloid nucleation score does the source give for VGSIVELSVHTTSDEKVSCR here?
**A.** The amyloid nucleation score was 0.316 ± 0.25.

**Q.** With VGSLFYKVRPGNNSFVTHIH as the substance, how does the amyloid nucleation score read?
**A.** The amyloid nucleation score was 1.08 ± 0.88.

**Q.** Which amyloid nucleation score does the source give for VGSPGCMGLVTLNHVP here?
**A.** Its amyloid nucleation score is 0.522 ± 0.24.

**Q.** With VGTLSRLSFYVVDAVSAQRG as the substance, how does the amyloid nucleation score read?
**A.** The amyloid nucleation score was 0.756 ± 0.81.

**Q.** Which amyloid nucleation score does the source give for VGYNNWTLVWGQGAMRVYSG here?
**A.** Its amyloid nucleation score is 0.033 ± 0.34.

**Q.** With VHFDRCDLWPGMM as the substance, how does the amyloid nucleation score read?
**A.** The amyloid nucleation score was 0.136 ± 0.76.

**Q.** With VHGYL as the substance, how does the amyloid nucleation score read?
**A.** Its amyloid nucleation score is 0.067 ± 0.59.

**Q.** Which amyloid nucleation score does the source give for VHNNCRWFAGKFPLSRVVLR here?
**A.** Its amyloid nucleation score is 0.553 ± 1.2.

**Q.** With VHRFQ as the substance, how does the amyloid nucleation score read?
**A.** The amyloid nucleation score was 0.108 ± 0.61.

**Q.** Which amyloid nucleation score does the source give for VHWIWGF here?
**A.** Its amyloid nucleation score is 0.228 ± 0.5.

**Q.** With VHWRASCNMQLRADQRICIL as the substance, how does the amyloid nucleation score read?
**A.** Its amyloid nucleation score is -0.84 ± 0.49.

**Q.** For VIFDNGRLIEHCYERLTRPW, which amyloid nucleation score is on record?
**A.** Its amyloid nucleation score is -0.327 ± 0.61.

**Q.** Which amyloid nucleation score does the source give for VIFYSLYSSVWFDSIYEGLT here?
**A.** The amyloid nucleation score was -0.566 ± 1.5.

**Q.** For VIGCAGSDLNLRSILCFILC, which amyloid nucleation score is on record?
**A.** Its amyloid nucleation score is -0.364 ± 0.28.

**Q.** Which amyloid nucleation score does the source give for VIGYWGW here?
**A.** The amyloid nucleation score was -0.164 ± 0.4.

**Q.** Which amyloid nucleation score does the source give for VIHGC here?
**A.** The amyloid nucleation score was -0.14 ± 0.27.

**Q.** For VIILPGGVCMMVC, which amyloid nucleation score is on record?
**A.** Its amyloid nucleation score is 0.843 ± 0.41.

**Q.** With VIITLSRCSRDHTDVMGTFV as the substance, how does the amyloid nucleation score read?
**A.** The amyloid nucleation score was -0.81 ± 1.4.

**Q.** Which amyloid nucleation score does the source give for VIIYLMARSLKVAH here?
**A.** Its amyloid nucleation score is 0.453 ± 0.38.

**Q.** With VIMFSFIS as the substance, how does the amyloid nucleation score read?
**A.** Its amyloid nucleation score is 5.04 ± 0.062.

**Q.** For VIMPGRYVNLAHRLDACSVH, which amyloid nucleation score is on record?
**A.** Its amyloid nucleation score is “inactive”.

**Q.** Which amyloid nucleation score does the source give for VIMQFFILCPHSVCISSENH here?
**A.** The amyloid nucleation score was 7.497 ± 0.049.

**Q.** Which amyloid nucleation score does the source give for VITRFYGSVGLRIPAIAVVL here?
**A.** Its amyloid nucleation score is 0.886 ± 0.58.

**Q.** Which amyloid nucleation score does the source give for VIYLGRIVVEGSNLTSKSSA here?
**A.** The amyloid nucleation score was 0.85 ± 0.7.

**Q.** For VKCVKVLMLHSWF, which amyloid nucleation score is on record?
**A.** Its amyloid nucleation score is 1.53 ± 0.38.

**Q.** With VKFIGYFLRNTSSSSCTSDP as the substance, how does the amyloid nucleation score read?
**A.** The amyloid nucleation score was 0.097 ± 0.58.

**Q.** Which amyloid nucleation score does the source give for VKMNVYYLIILNLWSYVMLG here?
**A.** The amyloid nucleation score was -0.994 ± 1.4.

**Q.** For VKRRLSHYAHMDGFVCNIR, which amyloid nucleation score is on record?
**A.** The amyloid nucleation score was 0.286 ± 1.4.

**Q.** Which amyloid nucleation score does the source give for VKTISCYMWFNVFN here?
**A.** Its amyloid nucleation score is 7.81 ± 0.05.

**Q.** With VKVCHSPKTSYDTVISRGNL as the substance, how does the amyloid nucleation score read?
**A.** The amyloid nucleation score was 0.459 ± 0.44.

**Q.** Which amyloid nucleation score does the source give for VKYGTLYEGRNDLIDVR here?
**A.** The amyloid nucleation score was 0.635 ± 0.62.

**Q.** For VLCRINGVRS, which amyloid nucleation score is on record?
**A.** Its amyloid nucleation score is 1.1 ± 0.97.

**Q.** With VLCSCAMGYMFFFRAMMFR as the substance, how does the amyloid nucleation score read?
**A.** Its amyloid nucleation score is -0.038 ± 0.38.

**Q.** With VLCSSWLLWKDAI as the substance, how does the amyloid nucleation score read?
**A.** Its amyloid nucleation score is 0.218 ± 0.61.

**Q.** For VLDQHPRDFESRGMVMANFY, which amyloid nucleation score is on record?
**A.** The amyloid nucleation score was 1.55 ± 0.24.

**Q.** With VLEISIDSDRAPMCGRRMDL as the substance, how does the amyloid nucleation score read?
**A.** Its amyloid nucleation score is 0.56 ± 1.

**Q.** For VLEWRGPF, which amyloid nucleation score is on record?
**A.** Its amyloid nucleation score is -0.239 ± 0.42.

**Q.** For VLFKGHLIEV, which amyloid nucleation score is on record?
**A.** Its amyloid nucleation score is 0.138 ± 0.3.

**Q.** Which amyloid nucleation score does the source give for VLFLHSS here?
**A.** The amyloid nucleation score was 0.355 ± 0.49.

**Q.** With VLFLTGFGNHSFRTDQMATG as the substance, how does the amyloid nucleation score read?
**A.** Its amyloid nucleation score is 0.287 ± 0.64.

**Q.** Which amyloid nucleation score does the source give for VLGGCYNFLLCF here?
**A.** The amyloid nucleation score was 7.713 ± 0.059.

— the supplement of paper PMC12042874
